Earlier results, collected in paper PMC6292179.

Target: IL-18BP (Homo sapiens) (UniProt O95998)
Sequence (O95998 31-194): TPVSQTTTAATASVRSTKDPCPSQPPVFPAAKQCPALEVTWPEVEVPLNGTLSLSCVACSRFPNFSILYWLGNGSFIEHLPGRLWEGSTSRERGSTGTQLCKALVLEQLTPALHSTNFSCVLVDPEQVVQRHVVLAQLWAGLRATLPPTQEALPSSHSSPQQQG

Chain of IL-18 (Q14116 37-193): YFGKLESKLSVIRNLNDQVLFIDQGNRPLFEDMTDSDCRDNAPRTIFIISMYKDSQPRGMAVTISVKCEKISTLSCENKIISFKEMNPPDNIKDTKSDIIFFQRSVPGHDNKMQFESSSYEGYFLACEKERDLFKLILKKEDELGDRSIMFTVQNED

Substance: IL-18 (from UniProt Q14116)
- Kd: 0.4 nM
